Reference: paper PMC7918451

Experiments:
[1] = biological target: T1, Interleukin-6 (IL-6) ((aptamer stated to be specific to mouse IL-6)) (UniProt P08505); experiment: GFET (graphene field-effect transistor), Hill-Langmuir fit, n = 0.3; conditions: pH ~3.64, 2 mM MgCl2; 5' amine coupled to 1-pyrenebutyric acid NHS ester (5' pyrene); 0.01x PBS with 2 mM MgCl2, pH ~7.4 (or adjusted to ~3.64), 10 min exposure per concentration, temperature not stated; aptamer immobilized on graphene
T1 sequence: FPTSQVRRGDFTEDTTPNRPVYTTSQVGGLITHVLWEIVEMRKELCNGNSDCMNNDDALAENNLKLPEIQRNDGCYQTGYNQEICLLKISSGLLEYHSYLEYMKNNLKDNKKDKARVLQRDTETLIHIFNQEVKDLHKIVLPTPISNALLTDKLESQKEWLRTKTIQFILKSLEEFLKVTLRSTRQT

[2] = biological target: T1, Interleukin-6 (IL-6) ((aptamer stated to be specific to mouse IL-6)); experiment: manufacturer value; conditions: 5' amine; 0.01x PBS with 2 mM MgCl2, pH ~7.4 (or adjusted to ~3.64), 10 min exposure per concentration, temperature not stated; aptamer immobilized on graphene; cited from earlier work

| Substance | Kd [1] [nM] | Kd [2] [nM] |
| --- | --- | --- |
| IL-6 aptamer ATW0077 (Base Pair Biotechnologies), pyrene-tagged (PTDA) | 3.4 | – |
| IL-6 aptamer ATW0077, as supplied (manufacturer Kd) | – | 5.4 |
